Source: US20070134724

Tested on: tau

With Gleevec-resistant abl1 (T3611 form) the “tyrosine phosphorylation of tau in the presence of Gleevec (western blot, ELISA)” value was “In the presence of Gleevec, both forms could phosphorylate tau”.
